Assay results: publication PMC7708434 (Biochimica et biophysica acta. General subjects, 2020)
Like-named read-outs stand apart in the source and are kept apart here.

B1: 4-hydroxy-tetrahydrodipicolinate reductase (DapB) from Vibrio vulnificus strain CMCP6 (enzyme, UniProt Q8DEM0 1-269, looked up)
chain: MVRIAVAGAAGRMGRNLVKAAHHNPVAKVAAGSERPESSLVGVDLGELCGEGKFDVVVCDDLAKQIDQFDVIIDFTAPASTLNNLALCQQYGKSIVIGTTGFTEEQREQIDLVAQQVPVVMAPNYSVGVNLVFKLLEKAAKVMGDYCDIEIVEAHHRHKVDAPSGTAIGMGEAIAGAMGNKLSDVAVYAREGITGERTKDEIGFATIRAGDIVGEHTAMFADIGERVEITHKATDRMTFANGAVKAAVWLHEKPAGFYTMTDVLGLNDL
B2: 4-hydroxy-tetrahydrodipicolinate reductase (DapB) from Mycobacterium tuberculosis HKBS1 (enzyme)
chain: MRVGVLGAKGKVGATMVRAVAAADDLTLSAELDAGDPLSLLTDGNTEVVIDFTHPDVVMGNLEFLIDNGIHAVVGTTGFTAERFQQVESWLVAKPNTSVLIAPNFAIGAVLSMHFAKQAARFFDSAEVIELHHPHKADAPSGTAARTAKLIAEARKGLPPNPDATSTSLPGARGADVDGIPVHAVRLAGLVAHQEVLFGTEGETLTIRHDSLDRTSFVPGVLLAVRRIAERPGLTVGLEPLLDLH

How the values were obtained:
[1] = target: the molecule itself; experiment: crystal structure
[2] = target: the molecule itself; experiment: crystal structure; remark: listed apart in the source

Protein | stoichiometry N [1] | stoichiometry N [2]
B1 | 4 | –
B2 | – | 4
